Test results from patent US20060009452A1, “Therapeutic targeting of PARC/CCL18 and its signaling in pulmonary fibrosis” (priority 2004, published 2006).

Legend:
TGF-β1 mRNA = experiment: Real-time PCR for TGF-β mRNA; assay type: cell-based, human; conditions: LF1 and LF4, 300 ng/ml rhPARC
Protocol: Real-time PCR Quantification of Steady-State mRNA Levels. Total RNA was purified from fibroblast cultures using Trizol reagent (Invitrogen, Carlsbad, Calif.) following the manufacturer's recommendations. First-strand cDNA was synthesized in a 20-μl reaction mixture containing 1 μg of total RNA, 50 mM Tris HCl (pH 8.3), 75 mM KCl, 3 mM MgCl2, 0.5 mM of each dNTP, 1 μM of random hexamer primers, and 400 units of Moloney murine leukemia virus RT (Invitrogen). The reaction mixture was incubated at 37° C. for 60 minutes, then heated at 95° C. for 5 minutes. Real-time PCR was performed on a LightCycler system (Roche, Indianapolis, Ind.). The primers, PCR protocol, and product quantification for the internal control 18S ribosomal RNA were exactly as reported previously (Schmittgen T D et al.). All other primers and hybridization probes were designed and prepared by TIB Molbiol (Adelphia, N.J.). […] The following PCR conditions were used: activation at 95° C. for 10 min, followed by 35 cycles of denaturation at 95° C. for 3 s, primer annealing at 50° C. for 5 s, fluorescence readout (F12/F11) at 50° C., and extension at 72° C. for 15 s. Fold difference in gene expression relative to 18S rRNA between treated and untreated cultures was calculated using the 2-ΔΔCT method (Livak K J et al.).

Sp1 = Sp1 immunoprecipitation and anti-phosphoserine Western blot; assay type: cell-based, human; conditions: fibroblasts activated with rhPARC up to 24 hours
Protocol: To determine if PARC stimulated phosphorylation of Sp1 and Smad3, these factors were immunoprecipitated from lysates of fibroblasts that had been activated with recombinant human PARC for up to 24 hours, and the levels of their phosphorylation were tested in Western blotting assays using anti-phosphoserine and anti-phospho-Smad2/3 antibodies. Equal loading was controlled by stripping the membranes and re-developing them with anti-Sp1, anti-Smad3 and anti-Smad2/3 antibodies (FIG. 17).
Preparation of fibroblast lysates, immunoprecipitation of Sp1 and Smad2/3, normalization of protein concentration in the samples with BioRad assays, electrophoretic separation, Western blotting, membrane stripping and re-development with different antibodies were performed as described in Atamas et al. (Am. J. Respir. Cell. Mol., 29:743-749 (2003); J. Immunol. 168: 1139-1145 (2002); and Arthritis Rheum., 42:1168-1178 (1999)), which are hereby incorporated by reference. Rabbit antibodies for total Smad2/3 and Sp1 were from Upstate (Waltham, Masss.). Antiphospho-Smad2/3 antibody and goat antibody for total Smad3 were from Santa Cruz Biotechnology (Santa Cruz, Calif.), as was anti-gp130 antibody used to confirm equal loading of the samples. Antiphosphoserine antibody was from Biomol (Plymouth Meeting, Pa.).

[1] = tested on: mink lung epithelial cells; experiment: Mink lung epithelial cell proliferation assay (thymidine incorporation); assay type: cell-based
Protocol: Mink Lung Epithelial Cell Proliferation Assay for Active TGF-β. Mink lung epithelial cell line CCL-64 was purchased from American Type Culture Collection (ATCC, Manassas, Va.) and maintained in high-serum medium. For proliferation assays, these cells were plated in 96-well plates at 1×10^4 cells/well in low-serum fibroblast cell culture medium and incubated overnight in humidified atmosphere of 5% CO2 at 37° C. The medium was then replaced with fibroblast cell culture supernatants or titrated dilutions rhTGF-β in low-serum medium, with and without neutralizing anti-pan-TGF-β antibody (clone 1D11 from R&D Systems), and incubation continued for additional 24 hours. Six hours before the end of the assay, wells were pulsed with 1 μCi of 3H-thymidine (Amersham). Quadruplicate cultures were harvested automatically and tritiated thymidine incorporation was measured with a TopCount NXT liquid scintillation counter (Perkin Elmer, Downers Grove, Ill.). Data were expressed as percent inhibition (versus low-serum medium used as a negative control), neutralized by 1 μg/ml of anti-TGF-β antibody (this concentration of the antibody was established in preliminary experiments as sufficient to completely abrogate the inhibitory effect of the fibroblast conditioned medium on mink lung epithelial cell proliferation). […]

B1: rhPARC: Recombinant human pulmonary and activation-regulated chemokine (CC chemokine CCL18), purchased from R&D Systems and Cell Sciences (protein)
chain: AQVGTNKELCCLVYTSWQIPQKFIVDYSETSPQCPKPGVILLTKRGRQICADPNKKWVQKYISDLKLNA
TGF-β1 mRNA
  steady-state levels of TGF-β mRNAs, treated versus control: no difference in TGF-β1 mRNA levels
Sp1
  level of Sp1 phosphorylation: consistently increased
[1]
  direct effect on proliferation of mink lung epithelial cells: did not affect proliferation of mink lung epithelial cells
